The term stoichiometry N denotes a count of units in the complex or per binding partner.

This passage reports stoichiometry N results from publication doi:10.1101/2024.04.28.591520.

The assay has as its target T1, Mycobacterium tuberculosis polyketide synthase 13 (Mycobacterium tuberculosis), I6X8D2.
T1 chain: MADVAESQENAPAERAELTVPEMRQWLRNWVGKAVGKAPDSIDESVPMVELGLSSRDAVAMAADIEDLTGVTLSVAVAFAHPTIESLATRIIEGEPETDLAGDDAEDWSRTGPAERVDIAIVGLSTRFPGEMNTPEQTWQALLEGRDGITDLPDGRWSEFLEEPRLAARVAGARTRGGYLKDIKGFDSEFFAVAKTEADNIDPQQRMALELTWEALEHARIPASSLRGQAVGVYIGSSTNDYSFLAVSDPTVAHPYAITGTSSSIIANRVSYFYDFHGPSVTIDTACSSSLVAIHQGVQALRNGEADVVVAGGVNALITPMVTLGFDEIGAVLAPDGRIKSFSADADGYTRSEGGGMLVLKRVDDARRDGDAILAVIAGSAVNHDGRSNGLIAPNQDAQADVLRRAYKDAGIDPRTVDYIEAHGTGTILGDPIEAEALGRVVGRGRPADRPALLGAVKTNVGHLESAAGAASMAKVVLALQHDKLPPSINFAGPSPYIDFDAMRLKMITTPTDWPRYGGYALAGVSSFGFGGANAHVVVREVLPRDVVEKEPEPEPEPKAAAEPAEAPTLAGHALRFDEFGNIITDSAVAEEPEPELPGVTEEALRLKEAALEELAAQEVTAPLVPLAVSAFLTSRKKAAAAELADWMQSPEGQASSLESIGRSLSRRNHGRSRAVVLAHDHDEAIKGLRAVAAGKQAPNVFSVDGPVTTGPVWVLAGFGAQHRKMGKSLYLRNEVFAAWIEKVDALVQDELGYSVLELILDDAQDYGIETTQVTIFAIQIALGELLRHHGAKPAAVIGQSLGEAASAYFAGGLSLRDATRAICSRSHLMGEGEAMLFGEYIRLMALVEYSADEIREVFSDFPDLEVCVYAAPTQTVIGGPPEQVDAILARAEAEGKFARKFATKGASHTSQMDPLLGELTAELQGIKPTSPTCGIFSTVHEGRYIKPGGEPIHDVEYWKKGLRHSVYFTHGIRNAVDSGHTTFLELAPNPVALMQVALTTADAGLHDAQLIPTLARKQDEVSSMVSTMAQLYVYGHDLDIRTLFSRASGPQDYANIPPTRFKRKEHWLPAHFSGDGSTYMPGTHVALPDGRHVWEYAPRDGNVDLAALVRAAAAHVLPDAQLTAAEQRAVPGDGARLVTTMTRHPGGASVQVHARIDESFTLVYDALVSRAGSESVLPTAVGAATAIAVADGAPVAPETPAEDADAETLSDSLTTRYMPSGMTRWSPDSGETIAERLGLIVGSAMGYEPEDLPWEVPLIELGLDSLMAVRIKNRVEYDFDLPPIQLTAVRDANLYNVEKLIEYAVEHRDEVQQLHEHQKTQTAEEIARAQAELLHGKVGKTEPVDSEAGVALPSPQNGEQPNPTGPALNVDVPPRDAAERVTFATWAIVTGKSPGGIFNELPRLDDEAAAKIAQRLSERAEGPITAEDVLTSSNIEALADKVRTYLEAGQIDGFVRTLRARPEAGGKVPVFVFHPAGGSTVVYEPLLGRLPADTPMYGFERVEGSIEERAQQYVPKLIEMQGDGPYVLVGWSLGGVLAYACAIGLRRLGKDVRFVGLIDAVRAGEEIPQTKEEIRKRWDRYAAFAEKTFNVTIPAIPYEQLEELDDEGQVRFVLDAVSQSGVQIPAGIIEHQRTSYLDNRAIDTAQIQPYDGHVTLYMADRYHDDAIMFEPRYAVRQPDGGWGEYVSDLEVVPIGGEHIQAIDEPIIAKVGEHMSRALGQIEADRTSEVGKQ
Kind of assay: AUC. To be noted: remark: other sources report otherwise.

B1: Mycobacterium tuberculosis polyketide synthase 13, I6X8D2 1-1733 (enzyme)
chain: MADVAESQENAPAERAELTVPEMRQWLRNWVGKAVGKAPDSIDESVPMVELGLSSRDAVAMAADIEDLTGVTLSVAVAFAHPTIESLATRIIEGEPETDLAGDDAEDWSRTGPAERVDIAIVGLSTRFPGEMNTPEQTWQALLEGRDGITDLPDGRWSEFLEEPRLAARVAGARTRGGYLKDIKGFDSEFFAVAKTEADNIDPQQRMALELTWEALEHARIPASSLRGQAVGVYIGSSTNDYSFLAVSDPTVAHPYAITGTSSSIIANRVSYFYDFHGPSVTIDTACSSSLVAIHQGVQALRNGEADVVVAGGVNALITPMVTLGFDEIGAVLAPDGRIKSFSADADGYTRSEGGGMLVLKRVDDARRDGDAILAVIAGSAVNHDGRSNGLIAPNQDAQADVLRRAYKDAGIDPRTVDYIEAHGTGTILGDPIEAEALGRVVGRGRPADRPALLGAVKTNVGHLESAAGAASMAKVVLALQHDKLPPSINFAGPSPYIDFDAMRLKMITTPTDWPRYGGYALAGVSSFGFGGANAHVVVREVLPRDVVEKEPEPEPEPKAAAEPAEAPTLAGHALRFDEFGNIITDSAVAEEPEPELPGVTEEALRLKEAALEELAAQEVTAPLVPLAVSAFLTSRKKAAAAELADWMQSPEGQASSLESIGRSLSRRNHGRSRAVVLAHDHDEAIKGLRAVAAGKQAPNVFSVDGPVTTGPVWVLAGFGAQHRKMGKSLYLRNEVFAAWIEKVDALVQDELGYSVLELILDDAQDYGIETTQVTIFAIQIALGELLRHHGAKPAAVIGQSLGEAASAYFAGGLSLRDATRAICSRSHLMGEGEAMLFGEYIRLMALVEYSADEIREVFSDFPDLEVCVYAAPTQTVIGGPPEQVDAILARAEAEGKFARKFATKGASHTSQMDPLLGELTAELQGIKPTSPTCGIFSTVHEGRYIKPGGEPIHDVEYWKKGLRHSVYFTHGIRNAVDSGHTTFLELAPNPVALMQVALTTADAGLHDAQLIPTLARKQDEVSSMVSTMAQLYVYGHDLDIRTLFSRASGPQDYANIPPTRFKRKEHWLPAHFSGDGSTYMPGTHVALPDGRHVWEYAPRDGNVDLAALVRAAAAHVLPDAQLTAAEQRAVPGDGARLVTTMTRHPGGASVQVHARIDESFTLVYDALVSRAGSESVLPTAVGAATAIAVADGAPVAPETPAEDADAETLSDSLTTRYMPSGMTRWSPDSGETIAERLGLIVGSAMGYEPEDLPWEVPLIELGLDSLMAVRIKNRVEYDFDLPPIQLTAVRDANLYNVEKLIEYAVEHRDEVQQLHEHQKTQTAEEIARAQAELLHGKVGKTEPVDSEAGVALPSPQNGEQPNPTGPALNVDVPPRDAAERVTFATWAIVTGKSPGGIFNELPRLDDEAAAKIAQRLSERAEGPITAEDVLTSSNIEALADKVRTYLEAGQIDGFVRTLRARPEAGGKVPVFVFHPAGGSTVVYEPLLGRLPADTPMYGFERVEGSIEERAQQYVPKLIEMQGDGPYVLVGWSLGGVLAYACAIGLRRLGKDVRFVGLIDAVRAGEEIPQTKEEIRKRWDRYAAFAEKTFNVTIPAIPYEQLEELDDEGQVRFVLDAVSQSGVQIPAGIIEHQRTSYLDNRAIDTAQIQPYDGHVTLYMADRYHDDAIMFEPRYAVRQPDGGWGEYVSDLEVVPIGGEHIQAIDEPIIAKVGEHMSRALGQIEADRTSEVGKQ
The molecule B1 showed a stoichiometry N of 2.
